Blank lines part the entries; values can stand above or below the substance they belong to.
Assays:
Experiment in all cases: cross-linking; in vivo cysteine cross-linking with 180 μM aldrithiol-4, 20 min, 37 °C, in SUKO HEK-293T cells expressing single-cysteine STIM1 with or without UNC93B1-FLAG-MYC, treated or not with 0.5 μM thapsigargin for 5 min; non-reducing electrophoresis, blot with anti-STIM1
[1] = molecular target: STIM1-A230C (cysteine-less STIM1 with a single cysteine at residue 230, TM region) (UniProt Q13586)
[2] = molecular target: STIM1-L251C (cysteine-less STIM1 with a single cysteine at residue 251, CC1 domain) (UniProt Q13586)
[3] = molecular target: STIM1-M241C (cysteine-less STIM1 with a single cysteine at residue 241, juxtamembrane region) (UniProt Q13586)

stoichiometry N [1]: 2
Substance: STIM1-A230C (cysteine-less STIM1 with a single cysteine at residue 230, TM region) (from UniProt Q13586 23-685) (natural protein)

Substance: STIM1-L251C (cysteine-less STIM1 with a single cysteine at residue 251, CC1 domain) (from UniProt Q13586 23-685) (natural protein)
stoichiometry N [2]: 2

stoichiometry N [3]: 2
Substance: STIM1-M241C (cysteine-less STIM1 with a single cysteine at residue 241, juxtamembrane region) (from UniProt Q13586 23-685) (natural protein)
